# Data from paper PMC10325903, “Prediction of cooperative homeodomain DNA binding sites from high-throughput-SELEX data”.
# T1: En1 HD fragment (UniProt P09065 282-401)
# T1 sequence: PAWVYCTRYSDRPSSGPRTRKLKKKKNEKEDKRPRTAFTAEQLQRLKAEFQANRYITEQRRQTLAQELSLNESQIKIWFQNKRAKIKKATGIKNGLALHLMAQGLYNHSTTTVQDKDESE
# T2: VENTX HD fragment (UniProt O95231 69-178)
# T2 sequence: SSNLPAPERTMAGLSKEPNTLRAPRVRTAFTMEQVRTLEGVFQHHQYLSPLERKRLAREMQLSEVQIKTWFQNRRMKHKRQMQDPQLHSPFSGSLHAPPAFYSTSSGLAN
# T3: Barx1 HD fragment (UniProt Q9ER42 95-221)
# T3 sequence: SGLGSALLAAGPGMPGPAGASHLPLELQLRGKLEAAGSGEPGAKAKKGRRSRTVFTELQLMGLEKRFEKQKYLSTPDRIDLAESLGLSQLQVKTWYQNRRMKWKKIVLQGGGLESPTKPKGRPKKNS
# How the values were obtained:
# MSX1 HD fragment = MSX1 HD fragment (UniProt P28360 131-258); assay: EMSA; EMSA, 34 nM IRDye700 probe, room temperature 20 min, 4% polyacrylamide gel 150 V 2 h; binding buffer as in cited ref 35 (not given); conditions: protein: recombinant; tags: N-terminal 6xHis (pET-14b or pET-14P; may be cleaved); label: 5' IRDye700 on bottom strand; blunt
# MSX1 HD fragment, sequence (P28360 131-258): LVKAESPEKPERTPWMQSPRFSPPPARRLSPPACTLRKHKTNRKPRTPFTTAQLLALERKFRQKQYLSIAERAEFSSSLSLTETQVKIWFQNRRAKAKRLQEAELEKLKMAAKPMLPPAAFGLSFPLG
# Alx1 (Cart1) HD fragment = Alx1 (Cart1) HD fragment (UniProt Q8C8B0 105-220); assay: as above; conditions: protein: recombinant; tags: N-terminal 6xHis (pET-14b or pET-14P; may be cleaved); chain copies: 2; label: 5' IRDye700 on bottom strand; blunt
# Alx1 (Cart1) HD fragment, sequence (Q8C8B0 105-220): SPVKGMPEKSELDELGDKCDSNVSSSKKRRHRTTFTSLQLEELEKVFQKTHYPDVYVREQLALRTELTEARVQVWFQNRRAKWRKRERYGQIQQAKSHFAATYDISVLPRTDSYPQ
# Dlx2 HD fragment = Dlx2 HD fragment (UniProt P40764 137-229); assay: EMSA; 20 and 80 nM protein; monomer; EMSA, 34 nM IRDye700 probe, room temperature 20 min, 4% polyacrylamide gel 150 V 2 h; binding buffer as in cited ref 35 (not given); conditions: protein: recombinant; tags: N-terminal 6xHis (pET-14b or pET-14P; may be cleaved); label: 5' IRDye700 on bottom strand; blunt
# Dlx2 HD fragment, sequence (P40764 137-229): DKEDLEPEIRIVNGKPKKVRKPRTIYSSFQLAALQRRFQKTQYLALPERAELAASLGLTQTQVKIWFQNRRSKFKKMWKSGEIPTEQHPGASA
# Msx2 HD fragment = Msx2 HD fragment (UniProt Q03358 99-227); assay: EMSA; EMSA, 34 nM IRDye700 probe, room temperature 20 min, 4% polyacrylamide gel 150 V 2 h; binding buffer as in cited ref 35 (not given); conditions: protein: recombinant; tags: N-terminal 6xHis (pET-14b or pET-14P; may be cleaved); chain copies: 2; label: 5' IRDye700 on bottom strand; blunt
# Msx2 HD fragment, sequence (Q03358 99-227): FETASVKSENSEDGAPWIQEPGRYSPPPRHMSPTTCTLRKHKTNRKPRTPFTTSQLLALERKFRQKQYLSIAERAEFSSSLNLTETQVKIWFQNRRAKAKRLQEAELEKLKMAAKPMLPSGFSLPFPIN
# Barhl2 HD fragment = Barhl2 HD fragment (UniProt Q8VIB5 190-316); assay: as above; conditions: protein: recombinant; tags: N-terminal 6xHis (pET-14b or pET-14P; may be cleaved); label: 5' IRDye700 on bottom strand; blunt
# Barhl2 HD fragment, sequence (Q8VIB5 190-316): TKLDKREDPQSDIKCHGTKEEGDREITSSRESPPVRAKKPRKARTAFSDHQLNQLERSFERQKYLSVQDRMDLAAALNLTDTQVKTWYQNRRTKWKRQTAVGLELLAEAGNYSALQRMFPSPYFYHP
# En1 HD fragment = biological target: T1, En1 HD fragment; assay: as above; conditions: protein: recombinant; tags: N-terminal 6xHis (pET-14b or pET-14P; may be cleaved); label: 5' IRDye700 on bottom strand; blunt
# Gsx2 HD fragment = Gsx2 HD fragment (UniProt P31316 167-305); assay: EMSA; 100 and 400 nM protein; EMSA, 34 nM IRDye700 probe, room temperature 20 min, 4% polyacrylamide gel 150 V 2 h; binding buffer as in cited ref 35 (not given); conditions: protein: recombinant; tags: N-terminal 6xHis (pET-14b or pET-14P; may be cleaved); chain copies: 2; label: 5' IRDye700 on bottom strand; blunt
# Gsx2 HD fragment, sequence (P31316 167-305): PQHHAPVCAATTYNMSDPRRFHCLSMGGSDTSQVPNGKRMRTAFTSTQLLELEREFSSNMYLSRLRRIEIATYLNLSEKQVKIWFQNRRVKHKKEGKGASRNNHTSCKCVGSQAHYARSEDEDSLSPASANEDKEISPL
# Alx4 HD fragment = Alx4 HD fragment (UniProt O35137 157-291); assay: EMSA; EMSA, 34 nM IRDye700 probe, room temperature 20 min, 4% polyacrylamide gel 150 V 2 h; binding buffer as in cited ref 35 (not given); conditions: protein: recombinant; tags: N-terminal 6xHis (pET-14b or pET-14P; may be cleaved); chain copies: 2; label: 5' IRDye700 on bottom strand; blunt
# Alx4 HD fragment, sequence (O35137 157-291): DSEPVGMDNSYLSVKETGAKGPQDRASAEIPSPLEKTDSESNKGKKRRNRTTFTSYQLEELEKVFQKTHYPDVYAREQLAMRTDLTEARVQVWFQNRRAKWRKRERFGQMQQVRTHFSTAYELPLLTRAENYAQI
# VENTX HD fragment = biological target: T2, VENTX HD fragment; assay: as above; conditions: protein: recombinant; tags: N-terminal 6xHis (pET-14b or pET-14P; may be cleaved); chain copies: 2; label: 5' IRDye700 on bottom strand; blunt
# Gsx1 HD fragment = Gsx1 HD fragment (UniProt P31315 127-261); assay: as above; conditions: protein: recombinant; tags: N-terminal 6xHis (pET-14b or pET-14P; may be cleaved); chain copies: 2; label: 5' IRDye700 on bottom strand; blunt
# Gsx1 HD fragment, sequence (P31315 127-261): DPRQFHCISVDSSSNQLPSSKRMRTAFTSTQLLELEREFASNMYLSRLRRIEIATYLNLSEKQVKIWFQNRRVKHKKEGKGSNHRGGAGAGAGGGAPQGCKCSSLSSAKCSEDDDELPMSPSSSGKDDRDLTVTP
# HESX1 HD fragment = HESX1 HD fragment (UniProt Q9UBX0 65-185); assay: as above; conditions: protein: recombinant; tags: N-terminal 6xHis (pET-14b or pET-14P; may be cleaved); label: 5' IRDye700 on bottom strand; blunt
# HESX1 HD fragment, sequence (Q9UBX0 65-185): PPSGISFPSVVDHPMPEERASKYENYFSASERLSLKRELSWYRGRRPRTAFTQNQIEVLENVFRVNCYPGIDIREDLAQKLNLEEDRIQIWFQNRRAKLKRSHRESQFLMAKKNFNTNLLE
# Barx1 HD fragment = biological target: T3, Barx1 HD fragment; assay: as above; conditions: protein: recombinant; tags: N-terminal 6xHis (pET-14b or pET-14P; may be cleaved); chain copies: 2; label: 5' IRDye700 on bottom strand; blunt
# Arx HD fragment = Arx HD fragment (UniProt O35085 292-420); assay: as above; conditions: protein: recombinant; tags: N-terminal 6xHis (pET-14b or pET-14P; may be cleaved); chain copies: 2; label: 5' IRDye700 on bottom strand; blunt
# Arx HD fragment, sequence (O35085 292-420): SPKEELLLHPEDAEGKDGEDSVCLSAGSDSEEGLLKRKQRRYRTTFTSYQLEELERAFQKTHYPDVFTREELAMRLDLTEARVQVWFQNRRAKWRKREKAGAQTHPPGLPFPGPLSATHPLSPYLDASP
binder,measurement,setting,value
MSX1_SELEX_1 (dsDNA) DNA 1: TGCGAACAGAAGCCAATTAGTGCTAATTGGCCAATTAGCTAGTGCGGGCGTGGCT DNA 2: AGCCACGCCCGCACTAGCTAATTGGCCAATTAGCACTAATTGGCTTCTGTTCGCA,cooperativity factor (tau),MSX1 HD fragment,1.2 ± 0.1 Tau cooperativity factor
Alx1_SELEX_2+1 (dsDNA) DNA 1: TGCGCCTAATTAGGATTAACCTGAACAGATAGTGCGGGCGTGGCT DNA 2: AGCCACGCCCGCACTATCTGTTCAGGTTAATCCTAATTAGGCGCA,cooperativity factor (tau),Alx1 (Cart1) HD fragment,10.1 ± 9.7 Tau cooperativity factor
MSX1_SELEX_1+1 (dsDNA) DNA 1: TGCGAACAGAAGCCAATTAGTGGCTAATTGGCCAATTAGCTAGTGCGGGCGTGGCT DNA 2: AGCCACGCCCGCACTAGCTAATTGGCCAATTAGCCACTAATTGGCTTCTGTTCGCA,cooperativity factor (tau),MSX1 HD fragment,1.2 ± 0.2 Tau cooperativity factor
Dlx2_SELEX_2 (dsDNA) DNA 1: TTCATGCAATTACTGCTAATTGCCACTATAGTGCGGGCGTGGCT DNA 2: AGCCACGCCCGCACTATAGTGGCAATTAGCAGTAATTGCATGAA,binding result,Dlx2 HD fragment,binds
Msx2_SELEX_2 (dsDNA) DNA 1: TGCGGGGCAATTAAATACCAATTAGTGATAGTGCGGGCGTGGCT DNA 2: AGCCACGCCCGCACTATCACTAATTGGTATTTAATTGCCCCGCA,cooperativity factor (tau),Msx2 HD fragment,14 ± 2.6 Tau cooperativity factor
Barhl2_SELEX_1+1 (dsDNA) DNA 1: TATTGTTGCTAAACGGTGGCGTTTAGCGTGTAGTGCGGGCGTGGCT DNA 2: AGCCACGCCCGCACTACACGCTAAACGCCACCGTTTAGCAACAATA,cooperativity factor (tau),Barhl2 HD fragment,6.4 ± 1.2 Tau cooperativity factor
En1_SELEX_2 (dsDNA) DNA 1: TGTAGGATAATTGGGTAATTAGTGCAGATAGTGCGGGCGTGGCT DNA 2: AGCCACGCCCGCACTATCTGCACTAATTACCCAATTATCCTACA,cooperativity factor (tau),En1 HD fragment,0.1 ± 0.1 Tau cooperativity factor
Gsx2_SELEX_2 (dsDNA) DNA 1: TCCAACAGTCATTAAACTCTCATTATCGTAGTGCGGGCGTGGCT DNA 2: AGCCACGCCCGCACTACGATAATGAGAGTTTAATGACTGTTGGA,binding result,Gsx2 HD fragment,binds
Alx4_SELEX_1 (dsDNA) DNA 1: TGTGTCTTAATTAGATTAACGCACTTGATAGTGCGGGCGTGGCT DNA 2: AGCCACGCCCGCACTATCAAGTGCGTTAATCTAATTAAGACACA,cooperativity factor (tau),Alx4 HD fragment,167 ± 23.1 Tau cooperativity factor
Gsx2_SELEX_1 (dsDNA) DNA 1: TCCAACAACAATTAAAAACATATTAACGTAGTGCGGGCGTGGCT DNA 2: AGCCACGCCCGCACTACGTTAATATGTTTTTAATTGTTGTTGGA,binding result,Gsx2 HD fragment,binds
VENTX_SELEX_1 (dsDNA) DNA 1: TGAAGTTAAGCCTAATCGATAAACGATTAGCGTTAGGAATAGTGCGGGCGTGGCT DNA 2: AGCCACGCCCGCACTATTCCTAACGCTAATCGTTTATCGATTAGGCTTAACTTCA,cooperativity factor (tau),VENTX HD fragment,36.7 ± 3.9 Tau cooperativity factor
Barhl2_SELEX_1 (dsDNA) DNA 1: TATTGTTGCTAAACGGTGCGTTTAGCGTGTAGTGCGGGCGTGGCT DNA 2: AGCCACGCCCGCACTACACGCTAAACGCACCGTTTAGCAACAATA,cooperativity factor (tau),Barhl2 HD fragment,5.4 ± 0.58 Tau cooperativity factor
Gsx1_HOMER+1 (dsDNA) DNA 1: TCACACTTAATTACTGAATTAATTACGTAGTGCGGGCGTGGCT DNA 2: AGCCACGCCCGCACTACGTAATTAATTCAGTAATTAAGTGTGA,cooperativity factor (tau),Gsx1 HD fragment,2.9 ± 0.9 Tau cooperativity factor
Alx4_SELEX_1+1 (dsDNA) DNA 1: TGTGTCTTAATTAGGATTAACGCACTTGATAGTGCGGGCGTGGCT DNA 2: AGCCACGCCCGCACTATCAAGTGCGTTAATCCTAATTAAGACACA,cooperativity factor (tau),Alx4 HD fragment,1.1 ± 0.8 Tau cooperativity factor
En1_SELEX_2+1 (dsDNA) DNA 1: TGTAGGATAATTGGGGTAATTAGTGCAGATAGTGCGGGCGTGGCT DNA 2: AGCCACGCCCGCACTATCTGCACTAATTACCCCAATTATCCTACA,cooperativity factor (tau),En1 HD fragment,0.2 ± 0.1 Tau cooperativity factor
Msx2_SELEX_2+1 (dsDNA) DNA 1: TGCGGGGCAATTAAATGACCAATTAGTGATAGTGCGGGCGTGGCT DNA 2: AGCCACGCCCGCACTATCACTAATTGGTCATTTAATTGCCCCGCA,cooperativity factor (tau),Msx2 HD fragment,2.1 ± 0.6 Tau cooperativity factor
HESX1_HOMER+1 (dsDNA) DNA 1: TCTTCTCTAATTAGTGGCTAATTCTGTAGTGCGGGCGTGGCT DNA 2: AGCCACGCCCGCACTACAGAATTAGCCACTAATTAGAGAAGA,cooperativity factor (tau),HESX1 HD fragment,1.3 ± 1.8 Tau cooperativity factor
Barx1_SELEX_2 (dsDNA) DNA 1: TATTCGAAACAATTAAATAACGATTACTGTAGTGCGGGCGTGGCT DNA 2: AGCCACGCCCGCACTACAGTAATCGTTATTTAATTGTTTCGAATA,cooperativity factor (tau),Barx1 HD fragment,4.4 ± 0.6 Tau cooperativity factor
Arx_SELEX_1 (dsDNA) DNA 1: TGCGTTGCTAATTGAATTAGCACACGTGCTAGTGCGGGCGTGGCT DNA 2: AGCCACGCCCGCACTAGCACGTGTGCTAATTCAATTAGCAACGCA,cooperativity factor (tau),Arx HD fragment,168 ± 50.7 Tau cooperativity factor
Alx1_SELEX_2 (dsDNA) DNA 1: TGCGCCTAATTAGATTAACCTGAACAGATAGTGCGGGCGTGGCT DNA 2: AGCCACGCCCGCACTATCTGTTCAGGTTAATCTAATTAGGCGCA,cooperativity factor (tau),Alx1 (Cart1) HD fragment,126 ± 27.2 Tau cooperativity factor
Dlx2_HOMER (dsDNA) DNA 1: TTCATGGGTAATTAGGTGTTATTATAGTGCGGGCGTGGCT DNA 2: AGCCACGCCCGCACTATAATAACACCTAATTACCCATGAA,binding result,Dlx2 HD fragment,binds
HESX1_HOMER (dsDNA) DNA 1: TCTTCTCTAATTAGTGCTAATTCTGTAGTGCGGGCGTGGCT DNA 2: AGCCACGCCCGCACTACAGAATTAGCACTAATTAGAGAAGA,cooperativity factor (tau),HESX1 HD fragment,1.7 ± 2 Tau cooperativity factor
VENTX_SELEX_1+1 (dsDNA) DNA 1: TGAAGTTAAGCCTAATCGATAGAACGATTAGCGTTAGGAATAGTGCGGGCGTGGCT DNA 2: AGCCACGCCCGCACTATTCCTAACGCTAATCGTTCTATCGATTAGGCTTAACTTCA,cooperativity factor (tau),VENTX HD fragment,3.3 ± 3 Tau cooperativity factor
Arx_SELEX_1+1 (dsDNA) DNA 1: TGCGTTGCTAATTGGAATTAGCACACGTGCTAGTGCGGGCGTGGCT DNA 2: AGCCACGCCCGCACTAGCACGTGTGCTAATTCCAATTAGCAACGCA,cooperativity factor (tau),Arx HD fragment,36.4 ± 11.5 Tau cooperativity factor
Gsx1_HOMER (dsDNA) DNA 1: TCACACTTAATTACTAATTAATTACGTAGTGCGGGCGTGGCT DNA 2: AGCCACGCCCGCACTACGTAATTAATTAGTAATTAAGTGTGA,cooperativity factor (tau),Gsx1 HD fragment,48.7 ± 12.9 Tau cooperativity factor
